Measurements: patent publication US20230365693A1 (BIONTECH, published 2023)
“And” between values parts separate entries of the source, which are not always exact repeats. Equal entries are not always repeated.

Columns and labels:
[1] = target: T1, human PD-1, full-length, expressed on cells (human (Homo sapiens), UniProt Q15116 25-288); test: cell-based or functional assay
[2] = target: T1, human PD-1, full-length, expressed on …; test: cell-based or functional assay; remark: listed apart in the source

T1 sequence (Q15116 25-288): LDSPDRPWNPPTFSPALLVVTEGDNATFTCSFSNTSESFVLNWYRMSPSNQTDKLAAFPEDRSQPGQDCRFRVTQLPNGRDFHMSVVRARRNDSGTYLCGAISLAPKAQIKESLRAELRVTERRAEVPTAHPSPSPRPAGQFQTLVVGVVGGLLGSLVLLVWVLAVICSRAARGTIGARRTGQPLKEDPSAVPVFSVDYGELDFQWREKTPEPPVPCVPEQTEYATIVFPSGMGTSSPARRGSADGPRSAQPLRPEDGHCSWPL

B1: IgG1-PD1 (antibody)
heavy: QVQLVESGGGLVQPGTSLRLSCSVSGFSLYSYNMGWVRQAPGKGLEYIGIISGGTIGHYASWAKGRFTISRDTSKTTLYLQMNSLTTEDTATYFCARAFYDDYDYNVWGPGTLVTVSSASTKGPSVFPLAPSSKSTSGGTAALGCLVKDYFPEPVTVSWNSGALTSGVHTFPAVLQSSGLYSLSSVVTVPSSSLGTQTYICNVNHKPSNTKVDKRVEPKSCDKTHTCPPCPAPEFERGPSVFLFPPKPKDTLMISRTPEVTCVVVDVSHEDPEVKFNWYVDGVEVHNAKTKPREEQYNSTYRVVSVLTVLHQDWLNGKEYKCKVSNKALPAPIEKTISKAKGQPREPQVYTLPPSREEMTKNQVSLTCLVKGFYPSDIAVEWESNGQPENNYKTTPPVLDSDGSFFLYSKLTVDKSRWQQGNVFSCSVMHEALHNHYTQKSLSLSPG
light: AIQLTQSPSSLSASVGGTVTITCQSSQSVYGNNQLSWYQQKPGQPPKLLIYQASKLETGVPSRFRGSGSGTQFTLTISSLQSEDFATYYCAGGYSSSSDTTFGGGTEVVVKRTVAAPSVFIFPPSDEQLKSGTASVVCLLNNFYPREAKVQWKVDNALQSGNSQESVTEQDSKDSTYSLSSTLTLSKADYEKHKVYACEVTHQGLSSPVTKSFNRGEC
- EC50 of PD-1/PD-L1 checkpoint blockade, bioluminescent cell-based reporter assay [1]: 0.165 µg/mL and 1.12 nM
- EC50 in the antigen-specific proliferation assay (CD8+ T-cell expansion index) [2]: 0.0124 µg/mL and 0.0837 nM
